± gives the standard deviation.

The data set in a line: protein stability index of a GFP-peptide fusion (GPS, HEK-293T) (PSI 1-6); higher = more stable.
The mark [1] stands for this setting: treatment: DMSO, c terminus: a fixed tail appended.
Setting [2] is: treatment: MLN4924 1 uM, 8 h, c terminus: a fixed tail appended.
The mark [3] stands for this setting: treatment: DMSO, c terminus: native.
[4] abbreviates: treatment: MLN4924 1 uM, 8 h, c terminus: native.
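Further: 24-mer peptide tiles fused after GFP, lentivirally expressed, FACS-sorted into six equal bins by GFP/DsRed ratio, decoded by Illumina sequencing, PSI is the read-weighted mean bin number.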

As for AKQTKRMLDMKVNPIQGLASKWDY [COX4I1], the protein stability index is, setting by setting: under setting [1], 2.93 ± 0.35; under setting [2], 2.72 ± 0.34.

Take TVLLVLEDEDPEEMPKSSDFLIHP [PCDHGC5]: the protein stability index worked out at 2.75 ± 0.15 under setting [1] and 2.91 ± 0.21 under setting [2].

For LAQLLDTLLAIGTKLPENQAIQMR [INTS4], the protein stability index is, setting by setting: under setting [1], 3.12 ± 0.73; under setting [2], 2.76 ± 0.5.

For the sequence SIRDANLYVSGLPKTMSQKEMEQL [ELAVL3], the protein stability index runs as follows: under setting [1], 4.4 ± 0.061; under setting [2], 4.27 ± 0.2.

Regarding EVVTPDNMCMGRTSRGKLGGQDSF [ETS1], the protein stability index runs as follows: under setting [1], 3.71 ± 0.16; under setting [2], 3.87 ± 0.2.

On to DIKNPEITTNRFYGPQVNNISHTK [WASL], for which the protein stability index was 3.19 ± 0.26 under setting [1] and 3.48 ± 0.41 under setting [2].

For the sequence GPSLPSKRESPGVGGGSGDEASAA [ZBTB22], the protein stability index was determined as 5.5 ± 0.34 under setting [1] and 5.64 ± 0.48 under setting [2].

Regarding LCCEWLRPEKHTKEQILEFLVLEQ [ZNF232], the protein stability index runs as follows: under setting [1], 2.23 ± 0.31; under setting [2], 2.24 ± 0.27.

MAPPAAPGRDRVGREDEDGWETRG [HES6] displayed a protein stability index under setting [1] of 5.2 ± 0.37 and a protein stability index under setting [2] of 5.48 ± 0.16.

Sequence QYMNEGELRVLADTYDSVYLHPNS [HDAC6] yielded a protein stability index under setting [1] of 2.83 ± 0.21 and a protein stability index under setting [2] of 3.33 ± 0.52.

In the case of AYSGNTSNLSYHLEKNHPEEFCEF [ZBED1], the protein stability index under setting [1] turned out to be 3.63 ± 0.38 and the protein stability index under setting [2] amounted to 3.55 ± 0.48.

HSTLEYKVKERLGTLKNPPKKKMK [LCOR] returned a protein stability index under setting [1] of 4.47 ± 0.26 and a protein stability index under setting [2] of 4.73 ± 0.28.

Consider TRNSPRGCRLPSISSTTCGRQLEK [SPATS1], for which the protein stability index is, setting by setting: under setting [1], 3.81 ± 0.26; under setting [2], 4 ± 0.18.

Turning to DVPDLQSVCSCTCYRSQDYGGRSV [KCNK9], the protein stability index came to 2.5 ± 0.36 under setting [1] and 2.81 ± 0.67 under setting [2].

As for EALLDRESENASLREKLRLREAEI [LRRC45], the protein stability index reads like this: under setting [1], 4.77 ± 0.26; under setting [2], 4.89 ± 0.083.

As for WAFSCGTWLPSRAEWLLAVRSIQP [AASDHPPT], the protein stability index was determined as 2.65 ± 0.65 under setting [1] and 2.6 ± 0.64 under setting [2].

As to NEIQCTGNEKSIIDCKFNAESQGC [LOXL2], the protein stability index under setting [1] was found to be 4.88 ± 0.36 and the protein stability index under setting [2] is 4.79 ± 0.58.

Consider SGRHILEDSCAELGESKEHMESRM [SDE2], for which the protein stability index came out at 4.64 ± 0.35 under setting [1] and 4.48 ± 0.23 under setting [2].

The sequence QLAQDDIDGIQAIYGRSQNPVQPI [MMP1] returned a protein stability index under setting [1] of 3.69 ± 0.1 and a protein stability index under setting [2] of 3.9 ± 0.14.

As to ERALDATEVPFSITTDNLQCRERR [TEKT4], the protein stability index runs as follows: under setting [1], 4.88 ± 0.069; under setting [2], 5.06 ± 0.11.

As for IATGPFVAFGIEADDESLLRTSNG [DNAAF3], the protein stability index reads like this: under setting [1], 3.9 ± 0.16; under setting [2], 4.01 ± 0.22.

PQKRKPQEQLLECNKLCGRGQSRQ [SLC2A12]: the protein stability index is 4.1 ± 0.37 under setting [1] and 4.4 ± 0.056 under setting [2].

In turn, MAQQQMTSSQKALMLELKSLQEEP [UBE2R2] came in with a protein stability index under setting [1] of 4.33 ± 0.28 and a protein stability index under setting [2] of 4.29 ± 0.24.

As to KVLRRWVDEEWPKRERGDPSRHF [EDARADD], the protein stability index reads like this: under setting [3], 3.21 ± 0.43; under setting [4], 3.42 ± 0.2.

As for LEIVGREGVSLTAVLTTHHHWDHA [HAGHL], the protein stability index by setting is: under setting [1], 2.59 ± 0.34; under setting [2], 2.32 ± 0.44.

Regarding LPCVVQEGAIVMARGRHVGSSETN [PYCR3], the protein stability index under setting [1] was determined as 4.42 ± 0.36.

For APSPGVKEQAIWKHPQPAPAVTPD [PKD2L1], the protein stability index stood at 5.15 ± 0.1 under setting [1] and 5.07 ± 0.13 under setting [2].

As to HTLLNELERNPNGVADGVIKSVLW [CDKL4], the protein stability index runs as follows: under setting [1], 2.58 ± 0.49; under setting [2], 2.7 ± 0.4.

With RQWTVSDWGPCSGSCGQGRTIRHV [ADAMTSL2], the protein stability index reads like this: under setting [1], 2.15 ± 0.23; under setting [2], 2.826 ± 0.025.

In the case of NQAAIMELDDTLKYSFLQFDPAPR [PPP2CA], the protein stability index is, setting by setting: under setting [1], 3.25 ± 0.17; under setting [2], 3.38 ± 0.21.

With ITEKIDVAFVDRADIKQYIGPPSA [TRIP13], the protein stability index worked out at 3.6 ± 0.15 under setting [1] and 3.54 ± 0.58 under setting [2].

In the case of PTYSDFCQFRPPVRVNDGGGSHPS [VDR], the protein stability index by setting is: under setting [1], 3.9 ± 0.25; under setting [2], 4.03 ± 0.18.

In the case of PRPVQLDETHPYTVTSVSCCHGNT [NEK8], the protein stability index is, setting by setting: under setting [1], 3.94 ± 0.23; under setting [2], 4.02 ± 0.14.

KTQIVCKHFLEAIENNKYGWFWVC [ZC3H15]: the protein stability index was 2.62 ± 0.52 under setting [1] and 3.09 ± 0.54 under setting [2].

With VVDKDKRNQCRYCRLKKCFRAGMK [HNF4A], the protein stability index under setting [1] was determined as 2.51 ± 0.065 and the protein stability index under setting [2] came out at 2.75 ± 0.39.

Regarding VVCAFFKQGQCTKGDKCKFSHDLT [ZC3H15], the protein stability index by setting is: under setting [1], 4.26 ± 0.64; under setting [2], 4.1 ± 0.47.

As for KEEGLPEEEPSHVTGREGFPTDAP [ZNF8], the protein stability index is, setting by setting: under setting [1], 5.45 ± 0.23; under setting [2], 5.57 ± 0.3.

On to QQYAAQQYPGNYEQQQILIRQLQE [ACBD3], for which the protein stability index reads like this: under setting [1], 4.07 ± 0.19; under setting [2], 4.06 ± 0.22.

Take SSHLQSSKAGPTRIFTSNTHSSVV [KLHL13]: the protein stability index is, setting by setting: under setting [1], 3.52 ± 0.22; under setting [2], 3.52 ± 0.2.

Regarding MSYSCCLPSLGCRTSCSSRPCVPP [KRT34], the protein stability index was determined as 2.22 ± 0.17 under setting [1] and 2.37 ± 0.4 under setting [2].

As for EDSESLRIKEVEHMTRHLEESEKA [LRRC45], the protein stability index by setting is: under setting [1], 5.5 ± 0.23; under setting [2], 5.51 ± 0.2.

Turning to SSPKFREEAAFPGRRVNAKMPVYS [ELOA2], the protein stability index is, setting by setting: under setting [1], 3.3 ± 0.17; under setting [2], 3.48 ± 0.14.

GLRAGFSSTSYRRTFGPPPSLSPG [PRPH]: the protein stability index is 2.62 ± 0.24 under setting [1] and 2.93 ± 0.15 under setting [2].

Regarding GHRLAQKLQGLENWGQDPGVSANA [PBXIP1], the protein stability index reads like this: under setting [1], 3.82 ± 0.2; under setting [2], 3.87 ± 0.3.

As to GRGAFGEVRLVQKKDTGHIYAMKI [STK38L], the protein stability index worked out at 2.09 ± 0.25 under setting [1] and 2.43 ± 0.49 under setting [2].

In the case of TVGLLWFAHHSLFLHVRKATRAMG [TMEM175], the protein stability index came to 2.46 ± 0.15 under setting [1] and 2.42 ± 0.39 under setting [2].

For FLANLHITALLNVSRRTSEACMTH [DUSP5], the protein stability index reads like this: under setting [1], 3.13 ± 0.42; under setting [2], 3.48 ± 0.7.

Turning to SPNTPQPVPEQSALCQGLYFHINQ [FAM104A], the protein stability index by setting is: under setting [1], 3 ± 0.15; under setting [2], 3.16 ± 0.33.

SSEASQLEDAAGGDSASEEKSGSA [FBXO34] had a protein stability index under setting [1] of 5.61 ± 0.17 and a protein stability index under setting [2] of 5.55 ± 0.29.

YDPWNAPEGIQKVAKCLIGVNYPK [CRY1] showed a protein stability index under setting [1] of 2.69 ± 0.13 and a protein stability index under setting [2] of 2.87 ± 0.16.

Take ELALFQMSVLWLEHDRETRMQYAP [KLHL14]: the protein stability index by setting is: under setting [1], 2.44 ± 0.58; under setting [2], 2.46 ± 0.34.

As to DNRCKLFDSPSLCSSSTRSVLKRP [CDC25A], the protein stability index stood at 3.48 ± 0.2 under setting [1] and 3.64 ± 0.28 under setting [2].

In turn, DCLQLIADSETPTIQKGSYTFVPW [TNFSF13B] registered a protein stability index under setting [1] of 2.19 ± 0.28 and a protein stability index under setting [2] of 2.2 ± 0.18.

With LATLDPLALDREPPPHLLPEKHQV [WDR88], the protein stability index under setting [1] was found to be 4.06 ± 0.22 and the protein stability index under setting [2] came to 4.24 ± 0.16.

Take QCPGLGPAPTPTPPGRLGAPYSEA [ZBED3]: the protein stability index is, setting by setting: under setting [1], 4.35 ± 0.15; under setting [2], 4.25 ± 0.067.

Consider GYGRAPGGLSLHDYKLLKPSLAVN [JUNB], for which the protein stability index amounted to 2.92 ± 0.035 under setting [1] and 2.88 ± 0.73 under setting [2].

Regarding MFRNHLCLVFELLSYNLYDLLRNT [DYRK1B], the protein stability index reads like this: under setting [1], 2.54 ± 0.23; under setting [2], 2.85 ± 0.72.

Regarding RLVYKFGKNSSGWKEEEVLQSRN [ELF3], the protein stability index was found to be 2.76 ± 0.35 under setting [3] and 3.21 ± 0.85 under setting [4].

Regarding DSMPQDLSEALKEATKEVHTQAEN [HMOX1], the protein stability index by setting is: under setting [1], 5.39 ± 0.26; under setting [2], 5.51 ± 0.19.

Regarding MHPGRTTGKGPSTHTQIDQQPPRL [M1AP], the protein stability index reads like this: under setting [1], 4.45 ± 0.1; under setting [2], 4.511 ± 0.026.

In the case of FIIHGFIDKGDESWVTDMCKVGAS [PNLIPRP1], the protein stability index amounted to 1.98 ± 0.25 under setting [1] and 2.65 ± 0.48 under setting [2].

In the case of GAPLLPPPLPPPSPPGSGRGPGAS [ACBD3], the protein stability index by setting is: under setting [1], 5.23 ± 0.21; under setting [2], 5.108 ± 0.027.

TMAAKKNRQSSDKQNGRVAKVKGH [C18orf25]: the protein stability index is 4.53 ± 0.25 under setting [1] and 4.58 ± 0.29 under setting [2].

For PGEPNNAGNNEHCGNIKAPSLQAW [CD207], the protein stability index reads like this: under setting [1], 4.38 ± 0.12; under setting [2], 4.21 ± 0.078.

EKSHQVLAQLLDTLLAIGTKLPEN [INTS4]: the protein stability index reads like this: under setting [1], 3.14 ± 0.82; under setting [2], 3.2 ± 0.86.

As to CSPSQMDLLCAQLQLPQLSDLGLL [FANCE], the protein stability index stood at 2.15 ± 0.42 under setting [1] and 2.13 ± 0.44 under setting [2].

As for LCAYGFFASLRPSEPFLTPYLLGP [SLC19A2], the protein stability index by setting is: under setting [1], 2.94 ± 0.32; under setting [2], 2.9 ± 0.56.

For the sequence ALLHQAETLQPSVWFGGREHVLMF [TMEM175], the protein stability index was 2.28 ± 0.51 under setting [1] and 1.95 ± 0.5 under setting [2].

For the sequence VLREDQIPRGFPTIDMGPQLKVVE [PTPRD], the protein stability index by setting is: under setting [1], 3.898 ± 0.018; under setting [2], 3.34 ± 1.1.

Regarding FWPHLKASNWSTTGFGQGQGYTIN [HDAC6], the protein stability index under setting [1] amounted to 2.38 ± 0.32 and the protein stability index under setting [2] stood at 2.64 ± 0.17.

In the case of LQSCQAEIIELRRTVNALEIELQA [KRT34], the protein stability index runs as follows: under setting [1], 2.15 ± 0.45; under setting [2], 2.11 ± 0.29.

For the sequence SSALHLSKGMSIFLDILRRADKND [NECAB1], the protein stability index under setting [1] turned out to be 2.29 ± 0.13 and the protein stability index under setting [2] worked out at 2.6 ± 0.31.

(Values after the supplement of paper PMC10567573.)
